How the values were obtained:
[1] = target: T1, human blood coagulation factor Xa (Homo sapiens, UniProt P00742); assay: cell-based or functional assay
Target sequence in this assay (P00742 41-488 limits assumed): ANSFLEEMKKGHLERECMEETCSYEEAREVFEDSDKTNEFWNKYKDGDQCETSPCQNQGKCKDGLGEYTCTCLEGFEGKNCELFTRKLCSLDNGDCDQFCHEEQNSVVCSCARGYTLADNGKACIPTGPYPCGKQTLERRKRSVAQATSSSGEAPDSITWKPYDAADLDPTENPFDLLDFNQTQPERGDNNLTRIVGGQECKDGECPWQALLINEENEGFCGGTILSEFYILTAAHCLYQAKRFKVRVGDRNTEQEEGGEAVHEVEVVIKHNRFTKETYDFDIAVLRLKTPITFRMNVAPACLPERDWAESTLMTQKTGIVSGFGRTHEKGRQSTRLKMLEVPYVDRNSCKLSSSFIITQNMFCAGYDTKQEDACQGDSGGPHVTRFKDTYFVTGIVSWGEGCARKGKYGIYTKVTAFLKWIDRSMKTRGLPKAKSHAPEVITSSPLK

[2] = target: T1, human blood coagulation factor Xa; assay: Inhibition of the serine protease activity of human blood coagulation factor Xa (chromogenic substrate LGR-pNA); format: biochemical; settings: 0.3 μM human factor Xa, 15 min at 37° C. preincubation, synthetic substrate LGR-pNA, Tris-HCl buffered saline pH8.0; from V/V0 curves of FIG. 4; read-out: 50% inhibition concentration (IC50) against serine protease activity of factor Xa
Experimental: Crude venom of Bitis arietans arietans purchased from LATOXAN was dissolved in Tris-HCl buffer (50 mM Tris-HCl pH 8.0) to prepare 2 mL of a crude venom solution (in concentration of 250 mg/mL). The crude venom solution was applied to Superdex 200 pg gel permeation column (φ2.6 cm×L 60 cm) equilibrated with the Tris-HCl buffer (50 mM Tris-HCl pH 8.0) at a flow rate of 2 mL/min. Two mL aliquots of the series of eluted fractions were collected, and each eluted fraction was determined for the presence of inhibitory activity against the serine protease activity of blood coagulation factor Xa. In the assay for inhibitory activity specific to the serine protease activity of blood coagulation factor Xa, a synthetic substrate Boc-leucyl-glycil-L-arginyl-p-nitroanilide hydrochloride was used to determine a concentration of a reaction product formed by truncation at the C-terminal side of an arginine residue by protease activity of blood coagulation factor Xa (Cproduct: concentration of p-nitroaniline), and then from a product concentration without addition of a test substance: Cproduct0 and a product concentration with addition of a test substance: Cproduct, an inhibitory rate was calculated as (Cproduct0−Cproduct)/Cproduct0. […]
Target sequence in this assay (P00742 235-488 limits assumed): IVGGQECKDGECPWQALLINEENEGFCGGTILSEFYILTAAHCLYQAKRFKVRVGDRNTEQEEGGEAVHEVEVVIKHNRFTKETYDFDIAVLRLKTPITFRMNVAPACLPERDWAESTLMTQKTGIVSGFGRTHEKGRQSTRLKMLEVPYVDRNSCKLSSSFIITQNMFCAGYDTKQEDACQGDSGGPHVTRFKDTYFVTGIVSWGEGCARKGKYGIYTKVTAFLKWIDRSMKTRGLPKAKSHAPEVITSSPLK
Target sequence in this assay (P00742 41-179 partner limits assumed): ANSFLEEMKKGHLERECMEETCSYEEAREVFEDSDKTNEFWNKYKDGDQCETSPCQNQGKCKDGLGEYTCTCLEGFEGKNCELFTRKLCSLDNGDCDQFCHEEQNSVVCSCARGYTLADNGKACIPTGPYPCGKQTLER

Molecule: SBTI (Soybean Trypsin Inhibitor; MW=20.1 kDa) (from UniProt P01070 25-205)
- 50% inhibition concentration (IC50) of factor Xa protease activity (V/V0), cleavage of synthetic substrate LGR-pNA [1]: 3e-07 M

B1: SBTI: Trypsin inhibitor substance from plant; Kunitz-type trypsin inhibitor from soybean, MW=20.1 kDa, positive control (protein, UniProt P01070 25-205, looked up)
Trypsin inhibitor A: DFVLDNEGNPLENGGTYYILSDITAFGGIRAAPTGNERCPLTVVQSRNELDKGIGTIISSPYRIRFIAEGHPLSLKFDSFAVIMLCVGIPTEWSVVEDLPEGPAVKIGENKDAMDGWFRLERVSDDEFNNYKLVFCPQQAEDDKCGDIGISIDHDDGTRRLVVSKNKPLVVQFQKLDKESL
- IC50 [2]: 300 nM

B2: bitoran V (protein)
chain: CRQNRPDFCYLPAVEGPCRAYIRSFFYNSTSNECEKFFYGGCYGNANKFETRDECRKTCVASA
- IC50 [2]: 20 nM
